From publication PMC3821912

Target: areca nut (AN) peroxidase (Areca catechu L.)
Assay: native gel or EMSA; native gel without heating or reducing agent; zymogram (20 mM guaiacol, 5 mM H2O2) and Coomassie staining; enzyme desalted with HEPES buffer (20 mM, pH 7.9); dimer to monomers

Substance: areca nut (AN) peroxidase (enzyme)
- stoichiometry N: 2
